# Substitutions are numbered along the chain they refer to. In names and notes the source's numbering stands. Several values for one entry are separate records, joined by “and”; a condition that tells them apart may be missing. Identical values can stand only once.
# B1: mAb Lc-2B03 with Hc2 M34S, M100L (antibody, V domains shown)
# VH: QVTLKESGPVLVKPTETLTLTCTVSGFSLSTYGSGVGWIRQPPGKALEWLAHIWWDDVKRYNPALKSRLTISKDTSKSQVVLTMTNMDPVDTATYYCARLGSDYDVWFDYWGQGTLVTVSS
# VL: EIVLTQSPATLSLSPGERATLSCRASKSISKYLAWYQQKPGQAPRLLIYSGSTLQSGIPARFSGSGSGTDFTLTISSLEPEDFAVYYCQQHDYPYTFGQGTKLEIK
# notes: full-length mAb, made in HEK293 and CHO
# B2: Lc15Hc1 (antibody, V domains shown)
# VH: B1 VH with V10A, E16Q, V24F, S34M, S78N, L100M
# VL: VIWMTQSPSLLSASTGDRVTISCRASKSISKYLAWYQQKPGKAPELLIYSGSTLQSGVPSRFSGSGSGTDFTLTISCLQSEDFATYYCQQHNEYPYTFGGGTKVEIK
# B3: Lc15Hc2 (antibody, V domains shown)
# VH: B1 VH with S34M, L100M
# VL: B2 VL
# B4: Lc7Hc1 (antibody, V domains shown)
# VL: DIQLTQSPSSLSASVGDRVTITCRASKSISKYLAWYRQKPGKVPKLLIYSGSTLQSGVPSRFSGSGSGTDFTLTISSLQPEDVATYYGQQHNEYPYTFGQGTKLEIK
# VH: B1 VH with V10A, E16Q, V24F, S34M, S78N, L100M
# B5: Lc3Hc2 (antibody, V domains shown)
# VH: B1 VH with S34M, L100M
# VL: B4 VL with D1A, R37Q, V43A, V83F, G88C, Q100G, L104V
# B6: mAb Lc-2B03 with Hc2 M34V, M100L, V106I (antibody, V domains shown)
# VH: B1 VH with S34V, V106I
# VL: B1 VL
# notes: full-length mAb
# B7: mAb Lc-2B03 with Hc2 M34S, M100L, V106I (antibody, V domains shown)
# VH: B1 VH with V106I
# VL: B1 VL
# notes: full-length mAb; both are written under this molecule
# B8: Lc11Hc2 (antibody, V domains shown)
# VH: B1 VH with S34M, L100M
# VL: B2 VL with V1A, W3R, L10S, L11F, S22T, E45K
# B9: mAb Lc-2B03 with Hc2 M34Q, M100L (antibody, V domains shown)
# VH: B1 VH with S34Q
# VL: B1 VL
# notes: as for B1
# B10: mAb Lc-2B03 with Hc2 T31S, M34S, M100L, V106I (antibody, V domains shown)
# VH: B1 VH with T31S, V106I
# VL: B1 VL
# notes: as for B1
# B11: Lc4Hc2 (antibody, V domains shown)
# VH: B1 VH with S34M, L100M
# VL: B4 VL with L4M, R37Q, V43A, L46R, D70E, V83F, G88C, Q100G, L104V
# B12: Lc2Hc2 (antibody, V domains shown)
# VH: B1 VH with S34M, L100M
# VL: B4 VL with L4M, R37Q, V43A, V83F, G88C
# B13: mAb Lc-2B03 with Hc2 T31S, M34V, M100L (antibody, V domains shown)
# VH: B1 VH with T31S, S34V
# VL: B1 VL
# notes: as for B1
# B14: Lc5Hc2 (antibody, V domains shown)
# VH: B1 VH with S34M, L100M
# VL: B4 VL with S10F, R37Q, V43A, D70E, V83F, G88C, L104V
# B15: mAb Lc-2B03 with Hc2 M34E, M100L, V106I (antibody, V domains shown)
# VH: B1 VH with S34E, V106I
# VL: B1 VL
# notes: full-length mAb
# B16: Lc14Hc2 (antibody, V domains shown)
# VH: B1 VH with S34M, L100M
# VL: B4 VL with L4M, S10T, R37Q, V43A, D70E, E81D, V83F, G88C, Q100G, L104V
# B17: Lc10Hc2 (antibody, V domains shown)
# VH: B1 VH with S34M, L100M
# VL: B4 VL with S10F, R37Q, V43A, D70E, V83F, G88C, Q100G, L104V
# B18: Lc8Hc2 (antibody, V domains shown)
# VH: B1 VH with S34M, L100M
# VL: B4 VL with L4M, S10T, R37Q, V43A, D70E, E81D, V83F, G88C, K103R
# B19: mAb Lc-2B03 with Hc2 T31S, M34S, M100L (antibody, V domains shown)
# VH: B1 VH with T31S
# VL: B1 VL
# notes: as for B1
# B20: Lc12Hc1 (antibody, V domains shown)
# VH: B1 VH with V10A, E16Q, V24F, S34M, S78N, L100M
# VL: B4 VL with L4M, R37Q, G41E, V43A, L46S, V83F, G88C, Q100G, L104V
# B21: Lc3Hc6 (antibody, V domains shown)
# VH: QVQLVESGGGVVQPGRSLRLSCAASGFSLSTYGMGVGWVRQAPGKGLEWVAHIWWDDVKRYNPALKSRFTISRDNSKNTLYLQMNSLRAEDTAVYYCARMGSDYDVWFDYWGQGTLVTVSS
# VL: B4 VL with D1A, R37Q, V43A, V83F, G88C, Q100G, L104V
# B22: Lc7Hc6 (antibody, V domains shown)
# VL: B4 VL
# VH: B21 VH
# Assays:
# [1] = biological target: T1, human IL-13 R130Q variant (R110Q of the mature chain) (human, UniProt P35225 35-146, Biotinylated on amines (NHS-LC-biotin, 4:1) in ELISA, panning and competition assays. The letters are unchanged.); experiment: SPR (Biacore), mAb made in CHO
# T1 construct: R130Q counts from Met 1 of the signal peptide, R110Q on the mature chain; Bought from Peprotech; also called IL-13 R110Q; b-R130Q
# [2] = biological target: T1, human IL-13 R130Q variant (R110Q of the …); experiment: SPR (Biacore), mAb made in HEK293
# [3] = biological target: T1, human IL-13 R130Q variant (R110Q of the …); experiment: competition ELISA, biotinylated IL-13 R130Q binding to plate-bound IL-13Ra2, crude supernatant
# [4] = biological target: T1, human IL-13 R130Q variant (R110Q of the …); experiment: direct binding ELISA, mAb captured by anti-human Fc, biotinylated IL-13 R130Q, crude supernatant;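 further: 100% is the positive control mAb signal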
# [5] = biological target: T1, human IL-13 R130Q variant (R110Q of the …); experiment: SPR (Biacore), purified mAb from HEK293
# [6] = biological target: T2, human wild-type IL-13 (mature chain) (human, UniProt P35225 35-146, Biotinylated on amines (NHS-LC-biotin) in the competition assays. The letters are unchanged.); experiment: cell-based or functional assay
# [7] = biological target: T2, human wild-type IL-13 (mature chain); experiment: Luminex competition, inhibition of 500 pg/ml biotinylated wt IL-13 binding to IL-13Ra2
Binder,Kd [1],Kd [2],Percent Inhibition IL-13 R130Q (333 ng/ml) to Ra2 [3],Percent IL-13 R130Q (30 ng/ml) Binding [4],Kd [5],P-STAT6 EC50 [6],IC50 [7]
B1,0.0184 nM,0.0014 nM,–,–,–,–,–
B2,–,–,44%,76.2%,–,–,–
B3,–,–,61%,94.8%,–,–,–
B4,–,–,6%,-1.4%,–,–,–
B5,–,–,50%,85.3%,0.246 nM,–,–
B6,–,0.0252 nM,–,–,–,–,–
B7,–,0.0205 nM and 0.0209 nM,–,–,–,1.1 ng/mL,2.25 ng/mL
B8,–,–,51%,92.2%,–,–,–
B9,0.0251 nM,0.0243 nM,–,–,–,0.87 ng/mL,1.71 ng/mL
B10,0.0211 nM,0.0152 nM,–,–,–,0.65 ng/mL,1.68 ng/mL
B11,–,–,55%,84.7%,–,–,–
B12,–,–,52%,84%,0.365 nM,–,–
B13,0.0058 nM,0.0037 nM,–,–,–,0.59 ng/mL,1.75 ng/mL
B14,–,–,57%,85.9%,–,–,–
B15,–,0.0114 nM,–,–,–,1.79 ng/mL,2.54 ng/mL
B16,–,–,54%,91.8%,0.256 nM,–,–
B17,–,–,57%,78.9%,–,–,–
B18,–,–,55%,81.1%,0.272 nM,–,–
B19,0.0101 nM,0.0123 nM,–,–,–,0.59 ng/mL,1.72 ng/mL
B20,–,–,26%,36.4%,–,–,–
B21,–,–,14%,26.6%,–,–,–
B22,–,–,4%,-0.3%,–,–,–
